Source: patent publication US20250333467A1 (TECTONIC OPERATING, published 2025)
Numbering of substitutions follows the chain as printed. Where “and” joins values, the source holds several entries; their conditions need not be identical. Equal entries are not always repeated. Where two headings read alike, the source gives them in different places.

T1: human RXFP1 (human, UniProt Q9HBX9 1-757)
T1 sequence (looked up): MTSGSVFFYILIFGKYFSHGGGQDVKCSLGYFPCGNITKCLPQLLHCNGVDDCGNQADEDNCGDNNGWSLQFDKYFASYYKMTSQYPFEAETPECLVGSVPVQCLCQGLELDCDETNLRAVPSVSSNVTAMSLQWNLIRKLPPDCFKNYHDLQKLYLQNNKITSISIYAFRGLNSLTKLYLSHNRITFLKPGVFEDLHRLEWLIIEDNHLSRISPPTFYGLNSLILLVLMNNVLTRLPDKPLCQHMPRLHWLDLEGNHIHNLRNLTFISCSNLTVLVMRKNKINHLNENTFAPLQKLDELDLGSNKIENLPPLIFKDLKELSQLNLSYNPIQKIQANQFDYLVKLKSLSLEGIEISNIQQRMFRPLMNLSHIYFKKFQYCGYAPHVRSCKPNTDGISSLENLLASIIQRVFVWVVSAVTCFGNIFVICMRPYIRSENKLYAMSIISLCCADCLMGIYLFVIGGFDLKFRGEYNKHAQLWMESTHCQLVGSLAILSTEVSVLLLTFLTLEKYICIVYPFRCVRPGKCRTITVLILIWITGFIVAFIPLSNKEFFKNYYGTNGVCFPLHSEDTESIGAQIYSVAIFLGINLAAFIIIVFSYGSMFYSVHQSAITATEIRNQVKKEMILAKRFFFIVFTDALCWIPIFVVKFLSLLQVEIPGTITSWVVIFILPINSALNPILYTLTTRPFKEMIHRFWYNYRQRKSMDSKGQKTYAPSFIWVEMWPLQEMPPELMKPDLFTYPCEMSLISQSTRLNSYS

T2: rat RXFP1 (rat, UniProt Q6R6I6 1-758)
T2 sequence (looked up): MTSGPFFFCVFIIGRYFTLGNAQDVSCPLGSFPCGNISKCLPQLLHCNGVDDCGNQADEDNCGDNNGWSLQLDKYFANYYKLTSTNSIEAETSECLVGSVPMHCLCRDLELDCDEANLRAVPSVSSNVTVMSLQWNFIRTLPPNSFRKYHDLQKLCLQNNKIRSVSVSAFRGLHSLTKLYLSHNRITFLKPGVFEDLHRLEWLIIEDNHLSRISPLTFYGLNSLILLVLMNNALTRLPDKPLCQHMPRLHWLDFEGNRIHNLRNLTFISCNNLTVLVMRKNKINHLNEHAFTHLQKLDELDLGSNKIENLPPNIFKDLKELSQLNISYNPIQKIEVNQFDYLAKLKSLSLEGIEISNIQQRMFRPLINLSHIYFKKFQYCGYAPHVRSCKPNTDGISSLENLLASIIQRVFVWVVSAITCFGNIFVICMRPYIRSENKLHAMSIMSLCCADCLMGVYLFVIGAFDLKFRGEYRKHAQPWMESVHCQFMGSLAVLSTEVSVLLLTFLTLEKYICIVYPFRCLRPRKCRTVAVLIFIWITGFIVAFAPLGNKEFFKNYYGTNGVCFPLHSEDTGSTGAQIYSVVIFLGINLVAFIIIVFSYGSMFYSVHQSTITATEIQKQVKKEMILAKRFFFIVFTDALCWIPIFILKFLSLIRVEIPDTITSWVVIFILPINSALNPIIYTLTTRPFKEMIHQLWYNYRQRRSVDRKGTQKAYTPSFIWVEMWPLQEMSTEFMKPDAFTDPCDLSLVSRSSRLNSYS

T3: cynomolgus monkey RXFP1 (cynomolgus monkey, UniProt H9ERA2 1-757 (rhesus entry))
T3 sequence: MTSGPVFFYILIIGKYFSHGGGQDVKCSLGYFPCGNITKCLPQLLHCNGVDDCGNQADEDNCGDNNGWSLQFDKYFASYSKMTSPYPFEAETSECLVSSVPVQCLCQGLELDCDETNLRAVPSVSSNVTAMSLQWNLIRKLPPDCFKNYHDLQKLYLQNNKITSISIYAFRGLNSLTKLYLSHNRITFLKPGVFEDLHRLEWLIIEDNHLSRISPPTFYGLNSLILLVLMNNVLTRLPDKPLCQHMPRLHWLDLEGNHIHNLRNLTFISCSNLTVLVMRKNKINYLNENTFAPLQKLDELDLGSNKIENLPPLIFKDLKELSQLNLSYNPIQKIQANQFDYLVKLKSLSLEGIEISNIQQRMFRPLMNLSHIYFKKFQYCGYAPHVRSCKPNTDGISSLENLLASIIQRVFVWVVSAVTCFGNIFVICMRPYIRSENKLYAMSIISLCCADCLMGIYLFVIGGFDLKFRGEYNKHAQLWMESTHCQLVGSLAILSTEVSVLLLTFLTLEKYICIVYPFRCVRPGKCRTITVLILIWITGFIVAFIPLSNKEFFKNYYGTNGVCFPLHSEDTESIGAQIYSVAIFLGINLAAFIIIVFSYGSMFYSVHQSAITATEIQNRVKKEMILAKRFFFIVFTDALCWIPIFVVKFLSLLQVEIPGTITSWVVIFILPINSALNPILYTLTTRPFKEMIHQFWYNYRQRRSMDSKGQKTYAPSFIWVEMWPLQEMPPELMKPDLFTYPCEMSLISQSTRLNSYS

B1: Wild-type human relaxin-2 (ligand)
chain 1: DSWMEEVIKLCGRELVRAQIAICGMSTWS
chain 2: QLYSALANKCCHVGCTKRSLARFC
B2: SEQ ID NO: 496 (Fc fusion)
chain: DKTHTCPPCPAPEAAGGPSVFLFPPKPKDTLMISRTPEVTCVVVDVSHEDPEVKFNWYVDGVEVHNAKTKPREEQYNSTYRVVSVLTVLHQDWLNGKEYKCKVSNKALAAPIEKTISKAKGQPREPQVYTLPPSRDELTKNQVSLTCLVKGFYPSDIAVEWESNGQPENNYKTTPPVLDSDGSFFLYSKLTVDKSRWQQGNVFSCSVLHEALHSHYTQKSLSLSPGKGGSDSWKEEVIKLCGRELVRAQIAICGKSTASDAAGANANAGARQLYSALANKCCHVGCTKRSLARFC
B3: SEQ ID NO: 87 (Fc fusion)
chain: B2 chain with K234Q, N265E, N267E, R293Q
B4: SEQ ID NO: 111 (Fc fusion)
chain: B2 chain with K227E, K234Q, N265Q, N267Q, R289Q, R293Q
B5: SEQ ID NO: 118 (Fc fusion)
chain: B2 chain with K227E, K234Q, K255Q, N265Q, N267Q, R289Q, R293Q

Key:
Assay in all cases: cell-based or functional assay
human RXFP1 [1] = biological target: T1, human RXFP1
human RXFP1 [2] = biological target: T1, human RXFP1; remark: listed apart in the source
human RXFP1 [3] = biological target: T1, human RXFP1; remark: listed apart in the source
rat RXFP1 [4] = biological target: T2, rat RXFP1
human RXFP1 [5] = biological target: T1, human RXFP1; remark: listed apart in the source
rat RXFP1 [6] = biological target: T2, rat RXFP1; remark: listed apart in the source
cynomolgus monkey RXFP1 = biological target: T3, cynomolgus monkey RXFP1
human RXFP1 [7] = biological target: T1, human RXFP1; remark: listed apart in the source
human RXFP2 [8] = biological target: T4, human RXFP2 (human, UniProt Q8WXD0 1-754)
T4 sequence (Q8WXD0 whole entry): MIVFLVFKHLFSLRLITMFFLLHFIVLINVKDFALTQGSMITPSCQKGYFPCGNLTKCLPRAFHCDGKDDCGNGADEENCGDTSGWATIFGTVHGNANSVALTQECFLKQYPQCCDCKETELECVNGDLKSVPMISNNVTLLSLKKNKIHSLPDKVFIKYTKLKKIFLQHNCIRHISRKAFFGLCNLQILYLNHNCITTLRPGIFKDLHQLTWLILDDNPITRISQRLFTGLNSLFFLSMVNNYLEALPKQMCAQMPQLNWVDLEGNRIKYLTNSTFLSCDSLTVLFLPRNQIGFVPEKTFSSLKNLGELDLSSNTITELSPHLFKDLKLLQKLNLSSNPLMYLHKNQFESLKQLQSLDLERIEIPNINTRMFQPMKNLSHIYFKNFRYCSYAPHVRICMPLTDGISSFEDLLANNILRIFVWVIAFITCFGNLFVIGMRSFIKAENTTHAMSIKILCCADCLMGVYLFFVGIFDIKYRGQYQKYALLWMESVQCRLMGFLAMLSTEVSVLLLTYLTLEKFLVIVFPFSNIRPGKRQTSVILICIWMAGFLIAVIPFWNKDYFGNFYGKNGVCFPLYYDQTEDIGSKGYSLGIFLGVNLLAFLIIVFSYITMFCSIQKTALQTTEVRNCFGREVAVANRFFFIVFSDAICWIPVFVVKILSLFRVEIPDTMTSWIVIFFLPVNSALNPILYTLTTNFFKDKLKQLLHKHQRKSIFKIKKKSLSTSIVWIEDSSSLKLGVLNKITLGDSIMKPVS

human RXFP1 [9] = biological target: T1, human RXFP1; remark: listed apart in the source
rat RXFP1 [10] = biological target: T2, rat RXFP1; remark: listed apart in the source
human RXFP2 [11] = biological target: T4, human RXFP2; remark: listed apart in the source
human RXFP1 [12] = biological target: T1, human RXFP1; remark: listed apart in the source

| Binder | EC50, cAMP response in RXFP1 transfected HEK293 cells (human RXFP1 [1]) [nM] | pEC50, cAMP response in RXFP1 transfected HEK293 cells (human RXFP1 [1]) | Potency (cAMP, transient hRXFP1 in HEK293) (human RXFP1 [2]) [nM] | THP1 (endogenous RXFP1) cAMP EC50 (human RXFP1 [3]) [nM] | Transient HEK293 hRXFP1 cAMP EC50 (human RXFP1 [3]) [nM] | Transient HEK293 rRXFP1 cAMP EC50 (rat RXFP1 [4]) [nM] | cAMP response EC50, human RXFP1 transient in HEK293 (human RXFP1 [5]) | cAMP response EC50, rat RXFP1 transient in HEK293 (rat RXFP1 [6]) | cAMP response EC50, cynomolgus monkey RXFP1 transient in HEK293 (cynomolgus monkey RXFP1) | cAMP response EC50, THP-1 (endogenous RXFP1) (human RXFP1 [7]) | cAMP response EC50, human RXFP1 stable in CHO-K1 (human RXFP1 [7]) | cAMP response EC50, human RXFP2 stable in CHO-K1 (human RXFP2 [8]) | EC50 for cAMP generation, recombinant human RXFP1 assay (average) (human RXFP1 [9]) [nM] | EC50 for cAMP generation, recombinant rat RXFP1 assay (average) (rat RXFP1 [10]) [nM] | fold loss of cAMP potency on human RXFP2 against human RXFP1 (CHO-K1, stable) (human RXFP2 [11]) [fold] | Potency (cAMP, transient hRXFP1 in HEK293) (human RXFP1 [12]) [nM] |
| --- | --- | --- | --- | --- | --- | --- | --- | --- | --- | --- | --- | --- | --- | --- | --- | --- |
| B1 | 0.042 | 10.4 | 0.1 | 0.2 | 0.039 | 0.122 | 0.05 nM and 0.3 ng/mL | 0.1 nM and 0.6 ng/mL | 0.04 nM and 0.2 ng/mL | 0.07 nM and 0.4 ng/mL | 0.2 nM and 1 ng/mL | 10 nM and 90 ng/mL | 0.04 | 0.1 | – | – |
| B2 | – | – | 0.2 | 2 | 0.19 | 1.15 | – | – | – | – | – | – | 0.2 | 1 | – | – |
| B3 | – | – | 5.2 | 25 | 8.7 | 10.3 | 10 nM and 800 ng/mL | 30 nM and 2000 ng/mL | 10 nM and 800 ng/mL | 10 nM and 900 ng/mL | 40 nM and 2000 ng/mL | > 2 µM and > 1e+06 ng/mL | 10 | 35 | ~100 | 8.5 |
| B4 | – | – | 3.5 | 80 | 5.94 | 6.74 | – | – | – | – | – | – | – | – | – | – |
| B5 | – | – | 10.1 | 200 | 25 | 20.3 | – | – | – | – | – | – | – | – | – | – |
